Reference: patent US20250002543A1
Where a chain is given by its changes, count along the chain named.

B1: FpL_C3 4f (designed binder)
chain: ETPEEPKEEVTIKVNLIFADGKIQTAEFKGTFEEATAKAYAYADLLAKEYGVYTADLEDGGYTINIKFAGHHHHHH
B2: FpL_C3 2a (designed binder)
chain: B1 chain with D44N, V52G, Y62N
B3: FpL_C3 5c (designed binder)
chain: B1 chain with D44G, E49V
B4: FpL_C3 5d (designed binder)
chain: B1 chain with D44G, E49V, Y50S
B5: FpL_C3KX 5e (designed binder)
chain: ETPEEPAEEVTIRVNLIFADGRIQTAEFIGTFEEATARAYAYANLLARDYGGFTADLEDGGYTINIRFAGHHHHHH
B6: FpL_C3KX_5e_P6S (designed binder)
chain: B5 chain with P6S
B7: FpL_C3KR (designed binder)
chain: B5 chain with A7R, I29R, D49E, Y50N, G52E, F53Y, Y62N
B8: FpL_C3KX 3a (designed binder)
chain: B5 chain with R22Q, D49E, F53Y
B9: FpL_C3KX 4h (designed binder)
chain: B5 chain with R22Q, F53Y
B10: FpL_C4KR (designed binder)
chain: ETPEEPREEVTIRVNLIFADGRTQTAEFRGTFEEATAEAYRYADLLARVNGEYTADLEDGGYTINIRFAGHHHHHH
B11: FpL_C3KX 7b (designed binder)
chain: B5 chain with E4G, E27R, G52D
B12: FpL_C3KX 7c (designed binder)
chain: B5 chain with E4G, A47R, G52D
B13: FpL_C3KX 6a (designed binder)
chain: B5 chain with E4G, G52D

Target: human antibody (gamma globulin preparation, manufactured by The Chemo-Sero-Therapeutic Research Institute) (human)
Assay: ELISA; human gamma globulin immobilised, alkali-untreated protein extract, Anti-6-His detection

| Binder | Antibody-binding activity (absorbance) (absorbance (450 nm)) |
| --- | --- |
| B1 | 0.9 |
| B2 | 0.72 |
| B3 | 0.74 |
| B4 | 0.46 |

Target: Herceptin containing human κ light chain subgroup 1 (Vκ1) (manufactured by Chugai Pharmaceutical Co., Ltd.)
Assay: ELISA; antibody immobilised, binding protein added, Anti-6-His detection (method of Example 21(4))

| Binder | Polyclonal antibody-binding activity (abs@450 nm) |
| --- | --- |
| B5 | 0.96 |
| B6 | 0.98 |
| B7 | 0.86 |

Target: human CTLA4 antibody containing human κ light chain subgroup 3 (Vκ3) (manufactured by R&D Systems)
Assay: as above

| Binder | Polyclonal antibody-binding activity (abs@450 nm) |
| --- | --- |
| B5 | 0.06 |
| B6 | 0.78 |
| B7 | 0.07 |

Target: Herceptin containing human κ light chain subgroup 1 (Vκ1) (manufactured by Chugai Pharmaceutical Co., Ltd.)
Assay: ELISA; antibody immobilised (10 ug/mL), binding protein at 50 ug/mL, Anti-6-His detection, blank-subtracted

| Binder | Polyclonal antibody-binding activity (abs@450 nm) |
| --- | --- |
| B8 | 0.87 |
| B9 | 0.69 |
| B10 | 0.65 |
| B7 | 0.92 |

Target: human CTLA4 antibody containing human κ light chain subgroup 3 (Vκ3) (manufactured by R&D Systems)
Assay: as above

| Binder | Polyclonal antibody-binding activity (abs@450 nm) |
| --- | --- |
| B8 | 0.21 |
| B9 | 0.63 |
| B10 | 0.66 |
| B7 | 0.32 |

Target: human PCSK9 antibody containing human κ light chain subgroup 4 (Vκ4) (manufactured by R&D Systems)
Assay: as above

| Binder | Polyclonal antibody-binding activity (abs@450 nm) |
| --- | --- |
| B8 | 0.76 |
| B9 | 0.62 |
| B10 | 0.55 |
| B7 | 0.77 |

Target: human PDGF R alpha antibody containing human κ light chain subgroup 3 (Vκ3) (manufactured by R&D Systems)
Assay: as above

| Binder | Polyclonal antibody-binding activity (abs@450 nm) |
| --- | --- |
| B8 | 0.12 |
| B9 | 0.56 |
| B10 | 0.59 |
| B7 | 0.21 |

Target: immunoglobulin immobilized on IgG Sepharose 6 Fast Flow (manufactured by Cytiva)
Assay: IgG Sepharose 6 Fast Flow column; linear gradient 0.1 M citrate pH 6.5 to pH 2.2; pH at the peak of the eluted binding protein

| Binder | Elution pH [pH] |
| --- | --- |
| B10 | 2.8 |

Target: Herceptin containing human κ light chain subgroup 1 (Vκ1) (manufactured by Chugai Pharmaceutical Co., Ltd.)
Assay: ELISA; Herceptin immobilised, binding protein at 2 ug/mL, dissociation with 0.05 M citric acid pH 2.4 for 2 min, absorbance ratio to wells without dissociation

| Binder | Elution rate [%] |
| --- | --- |
| B11 | 61 |
| B12 | 59 |
| B13 | 25 |
